Data as given in article PMC4002761.

Target: Taxol-stabilized Cy5-microtubules
Test: single-molecule TIRF microscopy

fold increase in the frequency of active landing events against FL WT Kif21a [fold]	Substance
10	mouse GFP-fused FL MT1 (M356T) Kif21a (natural protein)
10	mouse GFP-fused FL MT3 (R943W) Kif21a (natural protein)
